This note sets out measurements from publication PMC8200006.

The experiment deals with purified pig brain plasma membrane Ca2+-ATPase (PMCA) (pig) (UniProt P23220).
UniProt P23220, sequence (P23220 whole entry): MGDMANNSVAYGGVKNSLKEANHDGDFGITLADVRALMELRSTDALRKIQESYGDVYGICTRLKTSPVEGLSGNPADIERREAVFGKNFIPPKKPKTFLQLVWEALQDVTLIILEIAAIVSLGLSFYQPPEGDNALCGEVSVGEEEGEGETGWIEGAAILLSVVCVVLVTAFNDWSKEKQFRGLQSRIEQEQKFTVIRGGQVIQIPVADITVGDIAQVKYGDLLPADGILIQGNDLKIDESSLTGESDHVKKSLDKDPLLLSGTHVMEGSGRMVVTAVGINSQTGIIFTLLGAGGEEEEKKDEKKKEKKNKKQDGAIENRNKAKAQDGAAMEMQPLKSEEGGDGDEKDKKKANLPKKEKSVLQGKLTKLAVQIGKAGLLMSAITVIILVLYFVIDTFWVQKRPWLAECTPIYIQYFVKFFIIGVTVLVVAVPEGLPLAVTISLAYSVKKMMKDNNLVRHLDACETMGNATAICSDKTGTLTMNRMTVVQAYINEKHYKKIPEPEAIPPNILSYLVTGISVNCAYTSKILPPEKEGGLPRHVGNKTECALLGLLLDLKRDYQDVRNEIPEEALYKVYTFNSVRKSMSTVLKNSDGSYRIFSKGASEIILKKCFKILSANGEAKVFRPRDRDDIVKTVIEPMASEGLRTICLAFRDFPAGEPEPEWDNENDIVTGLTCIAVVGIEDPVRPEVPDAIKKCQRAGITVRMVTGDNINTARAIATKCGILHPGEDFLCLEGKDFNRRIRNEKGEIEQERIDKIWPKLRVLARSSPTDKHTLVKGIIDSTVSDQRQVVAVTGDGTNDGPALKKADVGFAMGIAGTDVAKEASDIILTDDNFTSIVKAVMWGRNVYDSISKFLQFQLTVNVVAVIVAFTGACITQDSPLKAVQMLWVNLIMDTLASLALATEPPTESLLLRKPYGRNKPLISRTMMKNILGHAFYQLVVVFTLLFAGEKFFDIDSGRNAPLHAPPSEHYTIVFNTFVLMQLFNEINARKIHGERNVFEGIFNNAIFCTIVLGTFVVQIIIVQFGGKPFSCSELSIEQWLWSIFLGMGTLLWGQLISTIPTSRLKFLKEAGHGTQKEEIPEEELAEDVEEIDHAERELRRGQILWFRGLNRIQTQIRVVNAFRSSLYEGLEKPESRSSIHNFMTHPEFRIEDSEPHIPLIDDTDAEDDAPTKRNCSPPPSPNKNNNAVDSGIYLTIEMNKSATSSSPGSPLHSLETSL

B1: Recombinant Human SRI (sorcin), soluble resistance-related calcium-binding protein (natural protein)
chain: MAYPGHPGAGGGYYPGGYGGAPGGPAFPGQTQDPLYGYFAAVAGQDGQIDADELQRCLTQSGIAGGYKPFNLETCRLMVSMLDRDMSGTMGFNEFKELWAVLNGWRQHFISFDTDRSGTVDPQELQKALTTMGFRLSPQAVNSIAKRYSTNGKITFDDYIACCVKLRALTDSFRRRDTAQQGVVNFPYDDFIQCVMSV
The molecule B1 showed a Ca2+-ATPase activity of purified pig brain PMCA reconstituted in PC, sorcin 12.5-50 nM in the assay medium, with Ca2+: fold activation of 1.8 fold and a Ca2+-ATPase activity of purified pig brain PMCA reconstituted in PC: EC50 of activation by sorcin (in the assay medium) of 12.5 nM.
